Data as given in IntAct's records for PubMed 30126976.

B1: Sodium bicarbonate cotransporter 3 (Homo sapiens), Q9Y6M7 (parent)
chain: MERFRLEKKLPGPDEEAVVDLGKTSSTVNTKFEKEELESHRAVYIGVHVPFSKESRRRHRHRGHKHHHRRRKDKESDKEDGRESPSYDTPSQRVQFILGTEDDDEEHIPHDLFTEMDELCYRDGEEYEWKETARWLKFEEDVEDGGDRWSKPYVATLSLHSLFELRSCILNGTVMLDMRASTLDEIADMVLDNMIASGQLDESIRENVREALLKRHHHQNEKRFTSRIPLVRSFADIGKKHSDPHLLERNGEGLSASRHSLRTGLSASNLSLRGESPLSLLLGHLLPSSRAGTPAGSRCTTPVPTPQNSPPSSPSISRLTSRSSQESQRQAPELLVSPASDDIPTVVIHPPEEDLEAALKGEEQKNEENVDLTPGILASPQSAPGNLDNSKSGEIKGNGSGGSRENSTVDFSKVDMNFMRKIPTGAEASNVLVGEVDFLERPIIAFVRLAPAVLLTGLTEVPVPTRFLFLLLGPAGKAPQYHEIGRSIATLMTDEIFHDVAYKAKDRNDLLSGIDEFLDQVTVLPPGEWDPSIRIEPPKSVPSQEKRKIPVFHNGSTPTLGETPKEAAHHAGPELQRTGRLFGGLILDIKRKAPFFLSDFKDALSLQCLASILFLYCACMSPVITFGGLLGEATEGRISAIESLFGASLTGIAYSLFAGQPLTILGSTGPVLVFEKILYKFCRDYQLSYLSLRTSIGLWTSFLCIVLVATDASSLVCYITRFTEEAFAALICIIFIYEALEKLFDLGETYAFNMHNNLDKLTSYSCVCTEPPNPSNETLAQWKKDNITAHNISWRNLTVSECKKLRGVFLGSACGHHGPYIPDVLFWCVILFFTTFFLSSFLKQFKTKRYFPTKVRSTISDFAVFLTIVIMVTIDYLVGVPSPKLHVPEKFEPTHPERGWIISPLGDNPWWTLLIAAIPALLCTILIFMDQQITAVIINRKEHKLKKGAGYHLDLLMVGVMLGVCSVMGLPWFVAATVLSISHVNSLKVESECSAPGEQPKFLGIREQRVTGLMIFILMGLSVFMTSVLKFIPMPVLYGVFLYMGVSSLKGIQLFDRIKLFGMPAKHQPDLIYLRYVPLWKVHIFTVIQLTCLVLLWVIKVSAAAVVFPMMVLALVFVRKLMDLCFTKRELSWLDDLMPESKKKKEDDKKKKEKEEAERMLQDDDDTVHLPFEGGSLLQIPVKALKYSPDKPVSVKISFEDEPRKKYVDAETSL
B2: Monocarboxylate transporter 4 (Homo sapiens), O15427 (parent)
chain: MGGAVVDEGPTGVKAPDGGWGWAVLFGCFVITGFSYAFPKAVSVFFKELIQEFGIGYSDTAWISSILLAMLYGTGPLCSVCVNRFGCRPVMLVGGLFASLGMVAASFCRSIIQVYLTTGVITGLGLALNFQPSLIMLNRYFSKRRPMANGLAAAGSPVFLCALSPLGQLLQDRYGWRGGFLILGGLLLNCCVCAALMRPLVVTAQPGSGPPRPSRRLLDLSVFRDRGFVLYAVAASVMVLGLFVPPVFVVSYAKDLGVPDTKAAFLLTILGFIDIFARPAAGFVAGLGKVRPYSVYLFSFSMFFNGLADLAGSTAGDYGGLVVFCIFFGISYGMVGALQFEVLMAIVGTHKFSSAIGLVLLMEAVAVLVGPPSGGKLLDATHVYMYVFILAGAEVLTSSLILLLGNFFCIRKKPKEPQPEVAAAEEEKLHKPPADSGVDLREVEHFLKAEPEKNGEVVHTPETSV
B3: Ecotropic viral integration site 5 protein homolog (Homo sapiens), O60447 (parent)
chain: MVTNKMTAAFRNPSGKQVATDKVAEKLSSTLSWVKNTVSHTVSQMASQVASPSTSLHTTSSSTTLSTPALSPSSPSQLSPDDLELLAKLEEQNRLLETDSKSLRSVNGSRRNSGSSLVSSSSASSNLSHLEEDSWILWGRIVNEWEDVRKKKEKQVKELVHKGIPHHFRAIVWQLLCSAQSMPIKDQYSELLKMTSPCEKLIRRDIARTYPEHNFFKEKDSLGQEVLFNVMKAYSLVDREVGYCQGSAFIVGLLLMQMPEEEAFCVFVKLMQDYRLRELFKPSMAELGLCMYQFECMIQEHLPELFVHFQSQSFHTSMYASSWFLTIFLTTFPLPIATRIFDIFMSEGLEIVFRVGLALLQMNQAELMQLDMEGMLQHFQKVIPHQFDGVPDKLIQAAYQVKYNSKKMKKLEKEYTTIKTKEMEEQVEIKRLRTENRLLKQRIETLEKHKCSSNYNEDFVLQLEKELVQARLSEAESQCALKEMQDKVLDIEKRNNSLPDENNIARLQEELIAVKLREAEAIMGLKELRQQVKDLEEHWQRHLARTTGRWKDPPKKNAMNELQDELMTIRLREAETQAEIREIKQRMMEMETQNQINSNHLRRAEQEVISLQEKVQYLSAQNKGLLTQLSEAKRKQAEIECKNKEEVMAVRLREADSIAAVAELRQHIAELEIQKEEGKLQGQLNKSDSNQYIGELKDQIAELNHELRCLKGQRGFSGQPPFDGIHIVNHLIGDDESFHSSDEDFIDNSLQETGVGFPLHGKSGSMSLDPAVADGSESETEDSVLETRESNQVVQKERPPRRRESYSTTV
B4: Vang-like protein 2 (Homo sapiens), Q9ULK5 (parent)
chain: MDTESQYSGYSYKSGHSRSSRKHRDRRDRHRSKSRDGGRGDKSVTIQAPGEPLLDNESTRGDERDDNWGETTTVVTGTSEHSISHDDLTRIAKDMEDSVPLDCSRHLGVAAGATLALLSFLTPLAFLLLPPLLWREELEPCGTACEGLFISVAFKLLILLLGSWALFFRRPKASLPRVFVLRALLMVLVFLLVVSYWLFYGVRILDARERSYQGVVQFAVSLVDALLFVHYLAVVLLELRQLQPQFTLKVVRSTDGASRFYNVGHLSIQRVAVWILEKYYHDFPVYNPALLNLPKSVLAKKVSGFKVYSLGEENSTNNSTGQSRAVIAAAARRRDNSHNEYYYEEAEHERRVRKRRARLVVAVEEAFTHIKRLQEEEQKNPREVMDPREAAQAIFASMARAMQKYLRTTKQQPYHTMESILQHLEFCITHDMTPKAFLERYLAAGPTIQYHKERWLAKQWTLVSEEPVTNGLKDGIVFLLKRQDFSLVVSTKKVPFFKLSEEFVDPKSHKFVMRLQSETSV

Variants of: B1
Details: with scrib_human SCRIB
Target sequence in this assay (Q14160 whole entry): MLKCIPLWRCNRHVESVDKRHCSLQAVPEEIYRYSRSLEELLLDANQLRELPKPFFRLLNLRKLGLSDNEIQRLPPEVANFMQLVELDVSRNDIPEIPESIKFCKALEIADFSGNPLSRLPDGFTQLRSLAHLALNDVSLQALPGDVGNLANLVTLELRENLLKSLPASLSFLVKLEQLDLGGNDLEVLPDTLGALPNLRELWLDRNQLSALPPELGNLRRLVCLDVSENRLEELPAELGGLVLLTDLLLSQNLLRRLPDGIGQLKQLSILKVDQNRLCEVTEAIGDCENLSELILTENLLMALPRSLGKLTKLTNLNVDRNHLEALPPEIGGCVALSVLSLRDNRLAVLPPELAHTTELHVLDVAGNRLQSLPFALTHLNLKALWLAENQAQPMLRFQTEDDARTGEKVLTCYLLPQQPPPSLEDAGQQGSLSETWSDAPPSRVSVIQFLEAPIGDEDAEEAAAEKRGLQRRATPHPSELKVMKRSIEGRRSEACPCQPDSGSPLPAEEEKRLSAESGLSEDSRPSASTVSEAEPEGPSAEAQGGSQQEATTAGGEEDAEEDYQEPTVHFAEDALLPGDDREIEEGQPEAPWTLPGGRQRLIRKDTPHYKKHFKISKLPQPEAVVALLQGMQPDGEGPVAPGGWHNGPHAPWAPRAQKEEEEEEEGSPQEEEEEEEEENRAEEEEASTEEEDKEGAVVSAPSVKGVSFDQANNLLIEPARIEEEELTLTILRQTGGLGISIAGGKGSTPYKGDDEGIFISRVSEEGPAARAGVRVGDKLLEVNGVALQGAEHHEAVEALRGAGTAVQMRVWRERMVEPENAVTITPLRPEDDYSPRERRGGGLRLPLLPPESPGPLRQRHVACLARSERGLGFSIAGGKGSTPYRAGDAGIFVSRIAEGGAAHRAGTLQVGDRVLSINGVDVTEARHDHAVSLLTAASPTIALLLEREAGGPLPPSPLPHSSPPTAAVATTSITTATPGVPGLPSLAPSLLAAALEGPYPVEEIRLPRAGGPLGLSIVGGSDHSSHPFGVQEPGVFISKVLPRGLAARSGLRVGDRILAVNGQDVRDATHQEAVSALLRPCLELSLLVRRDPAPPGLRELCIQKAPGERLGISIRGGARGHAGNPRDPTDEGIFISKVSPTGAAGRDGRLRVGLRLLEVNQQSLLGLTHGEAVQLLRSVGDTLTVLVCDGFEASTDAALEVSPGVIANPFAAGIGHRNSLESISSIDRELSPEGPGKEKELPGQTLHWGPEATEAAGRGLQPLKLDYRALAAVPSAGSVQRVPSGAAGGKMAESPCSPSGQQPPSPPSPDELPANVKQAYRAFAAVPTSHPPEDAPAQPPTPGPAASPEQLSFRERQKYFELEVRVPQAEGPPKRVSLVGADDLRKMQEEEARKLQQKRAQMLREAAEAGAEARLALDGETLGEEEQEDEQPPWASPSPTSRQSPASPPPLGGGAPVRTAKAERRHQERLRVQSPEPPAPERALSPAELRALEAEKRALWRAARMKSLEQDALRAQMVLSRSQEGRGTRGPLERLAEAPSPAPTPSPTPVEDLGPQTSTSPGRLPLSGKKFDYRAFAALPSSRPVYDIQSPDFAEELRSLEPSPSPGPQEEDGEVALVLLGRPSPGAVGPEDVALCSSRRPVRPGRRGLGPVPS
With S1213E the “effect of a mutation on the interaction” value was “with no effect”.

Variants of: B2
Details: with scrib_human SCRIB
Target sequence in this assay (Q14160 whole entry): as above
For MGGAVVDEGPTGVKAPDGGWGWAVLFGCFVITGFSYAFPKAVSVFFKELIQEFGIGYSDTAWISSILLAMLYGTGPLCSVCVNRFGCRPVMLVGGLFASLGMVAASFCRSIIQVYLTTGVITGLGLALNFQPSLIMLNRYFSKRRPMANGLAAAGSPVFLCALSPLGQLLQDRYGWRGGFLILGGLLLNCCVCAALMRPLVVTAQPGSGPPRPSRRLLDLSVFRDRGFVLYAVAASVMVLGLFVPPVFVVSYAKDLGVPDTKAAFLLTILGFIDIFARPAAGFVAGLGKVRPYSVYLFSFSMFFNGLADLAGSTAGDYGGLVVFCIFFGISYGMVGALQFEVLMAIVGTHKFSSAIGLVLLMEAVAVLVGPPSGGKLLDATHVYMYVFILAGAEVLTSSLILLLGNFFCIRKKPKEPQPEVAAAEEEKLHKPPADSGVDLREVEHFLKAEPEKNGEVVHTPETEV [S464E], the “effect of a mutation on the interaction” value was “with no effect”.

Variants of: B3
Details: with dlg1_human DLG1, Q12959
Target sequence in this assay (Q12959 whole entry, looked up): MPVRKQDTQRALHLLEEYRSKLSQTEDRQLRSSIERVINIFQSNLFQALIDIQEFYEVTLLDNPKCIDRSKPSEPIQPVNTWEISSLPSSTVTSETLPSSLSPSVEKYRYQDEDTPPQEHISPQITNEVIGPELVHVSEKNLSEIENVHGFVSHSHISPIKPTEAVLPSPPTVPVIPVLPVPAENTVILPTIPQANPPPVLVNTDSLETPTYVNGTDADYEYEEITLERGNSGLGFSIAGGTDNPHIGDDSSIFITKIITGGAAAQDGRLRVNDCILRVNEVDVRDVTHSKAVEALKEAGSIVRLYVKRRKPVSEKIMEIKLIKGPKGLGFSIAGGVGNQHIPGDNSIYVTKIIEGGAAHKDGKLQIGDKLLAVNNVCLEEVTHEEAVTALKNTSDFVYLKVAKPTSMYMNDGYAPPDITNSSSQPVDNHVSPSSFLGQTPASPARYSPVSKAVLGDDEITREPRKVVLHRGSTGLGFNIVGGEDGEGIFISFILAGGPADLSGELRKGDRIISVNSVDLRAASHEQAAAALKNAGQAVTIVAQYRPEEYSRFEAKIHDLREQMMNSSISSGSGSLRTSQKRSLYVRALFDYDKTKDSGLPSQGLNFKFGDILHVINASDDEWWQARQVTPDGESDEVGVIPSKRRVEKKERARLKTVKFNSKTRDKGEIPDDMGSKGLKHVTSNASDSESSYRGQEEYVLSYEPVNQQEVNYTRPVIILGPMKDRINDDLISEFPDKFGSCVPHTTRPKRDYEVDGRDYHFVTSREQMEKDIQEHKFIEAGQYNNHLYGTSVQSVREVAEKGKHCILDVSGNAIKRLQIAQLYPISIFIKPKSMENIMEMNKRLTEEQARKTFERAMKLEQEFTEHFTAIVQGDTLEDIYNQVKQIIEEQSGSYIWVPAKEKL
S805E was tested, and the “effect of a mutation on the interaction” value was “decreasing interaction strength”.

Variants of: B4
Details: with dlg1_human DLG1, Q12959
Target sequence in this assay (Q12959 whole entry, looked up): as above
In the case of MDTESQYSGYSYKSGHSRSSRKHRDRRDRHRSKSRDGGRGDKSVTIQAPGEPLLDNESTRGDERDDNWGETTTVVTGTSEHSISHDDLTRIAKDMEDSVPLDCSRHLGVAAGATLALLSFLTPLAFLLLPPLLWREELEPCGTACEGLFISVAFKLLILLLGSWALFFRRPKASLPRVFVLRALLMVLVFLLVVSYWLFYGVRILDARERSYQGVVQFAVSLVDALLFVHYLAVVLLELRQLQPQFTLKVVRSTDGASRFYNVGHLSIQRVAVWILEKYYHDFPVYNPALLNLPKSVLAKKVSGFKVYSLGEENSTNNSTGQSRAVIAAAARRRDNSHNEYYYEEAEHERRVRKRRARLVVAVEEAFTHIKRLQEEEQKNPREVMDPREAAQAIFASMARAMQKYLRTTKQQPYHTMESILQHLEFCITHDMTPKAFLERYLAAGPTIQYHKERWLAKQWTLVSEEPVTNGLKDGIVFLLKRQDFSLVVSTKKVPFFKLSEEFVDPKSHKFVMRLQEETEV [S517E;S520E], the “effect of a mutation on the interaction” value is reported as “with no effect”.
